The assay addresses T1, Bacillus subtilis FtsZ^1-382 (for light scattering) (Bacillus subtilis) (UniProt P17865).
T1 sequence: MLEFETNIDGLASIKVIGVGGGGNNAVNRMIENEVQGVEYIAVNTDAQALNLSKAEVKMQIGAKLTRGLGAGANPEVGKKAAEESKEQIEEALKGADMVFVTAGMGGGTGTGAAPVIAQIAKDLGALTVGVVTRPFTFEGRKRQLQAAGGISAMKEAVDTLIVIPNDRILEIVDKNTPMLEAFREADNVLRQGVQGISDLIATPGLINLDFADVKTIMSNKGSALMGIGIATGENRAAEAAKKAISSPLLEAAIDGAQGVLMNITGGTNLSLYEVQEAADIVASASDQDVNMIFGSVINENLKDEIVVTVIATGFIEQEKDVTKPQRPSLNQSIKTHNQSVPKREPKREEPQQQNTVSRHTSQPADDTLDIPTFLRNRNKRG

B1: Bacillus subtilis MinC^1-224 wild type (for light scattering) (natural protein)
chain: MKTKKQQYVTIKGTKNGLTLHLDDACSFDELLDGLQNMLSIEQYTDGKGQKISVHVKLGNRFLYKEQEEQLTELIASKKDLFVHSIDSEVITKKEAQQIREEAEIISVSKIVRSGQVLQVKGDLLLIGDVNPGGTVRAGGNIFVLGSLKGIAHAGFNGNNQAVIAASEMLPTQLRINHVLNRSPDHIQKGNEMECAYLDTDGNMVIERLQHLAHLRPDLTRLEG
B1 gave an inhibition of FtsZ polymerization by light scattering (5 uM FtsZ, 15 uM MinC, HMK buffer pH 7.7, 100 mM potassium) of 50%.

For the origin of these results see PMC11938149.
